Results as given in patent publication US20130004513A1.

Molecular target: Human CD4 on CD4+CD25+ regulatory T cells of healthy donors (human) (UniProt P01730)
Experiment: cell-based or functional assay

Negative control (antibody)
% Inh2: 7%
% Inh3: 5.2%
Avg. % inhibition: 5.1%
